This assay deals with PopP2 (149-488), AVI-tagged and biotinylated, the 'WT' of the BLI assay (Ralstonia solanacearum, UniProt Q8Y125 149-488). Nature of the assay: BLI.

B1: WRKY DNA-binding domain of the Arabidopsis RRS1-R immune receptor (domain or fragment)
chain: SESKVKKVVSIPAIDEGDLWTWRKYGQKDILGSRFPRGYYRCAYKFTHGCKATKQVQRSETDSNMLAITYLSEHNHPRPT
B1 returned an equilibrium dissociation constant (Kd) of 13 nM.

(Values after PMC8514532 (2021).)
